T1: LTαTyr108Phe (UniProt P01374 35-205)
T1 construct: also called LTαY108F; LTα (Y108F)
T1 sequence (looked up): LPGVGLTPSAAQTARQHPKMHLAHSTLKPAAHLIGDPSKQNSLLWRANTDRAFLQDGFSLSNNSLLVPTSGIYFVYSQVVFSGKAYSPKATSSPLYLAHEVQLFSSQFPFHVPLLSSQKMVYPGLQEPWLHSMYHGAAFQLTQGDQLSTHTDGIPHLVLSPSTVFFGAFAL

T2: LTβ (33 kDa) and LTα (23-25 kDa) complex from detergent extracts of PMA activated II-23.D7 cells (human, UniProt P01374 35-205; Q06643 1-244)
T2 construct: Native complex, in NP40 extract; also called LTα1β2 complex; surface LTα1β2
T2 sequence (looked up) 1: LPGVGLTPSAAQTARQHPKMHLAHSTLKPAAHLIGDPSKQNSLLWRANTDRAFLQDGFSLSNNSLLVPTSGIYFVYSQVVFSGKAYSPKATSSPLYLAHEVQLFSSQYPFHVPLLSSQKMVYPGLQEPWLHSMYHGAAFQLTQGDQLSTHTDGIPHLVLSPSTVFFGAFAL
T2 sequence (looked up) 2: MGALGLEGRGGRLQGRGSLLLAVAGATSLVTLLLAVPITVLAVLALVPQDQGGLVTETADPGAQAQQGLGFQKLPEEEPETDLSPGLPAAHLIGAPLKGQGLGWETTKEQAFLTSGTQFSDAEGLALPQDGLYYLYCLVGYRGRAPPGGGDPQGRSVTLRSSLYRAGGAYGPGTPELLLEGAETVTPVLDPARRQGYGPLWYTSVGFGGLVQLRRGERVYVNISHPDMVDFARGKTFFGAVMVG


Columns and labels:
LTαTyr108Phe = target: T1, LTαTyr108Phe; test: competition flow cytometry: HVEM:Fc pre-incubated with the ligand, then added to II-23.D7 cells activated with PMA and ionomycin, anti-huIgG-PE
[1] = target: T3, p30 (LIGHT), the 30 kDa cell surface HVEM ligand of activated II-23.D7 T hybridoma cells and human T cells (human, UniProt O43557 1-240); test: flow cytometry, saturation binding on activated II-23.D7 cells; whole activated (PMA + ionomycin) II-23.D7 cells; apparent half-maximal binding by flow cytometry
T3 construct: whole, on cells; On the cell surface in flow cytometry; in NP40 detergent extracts in the precipitations
T3 sequence (O43557 whole entry): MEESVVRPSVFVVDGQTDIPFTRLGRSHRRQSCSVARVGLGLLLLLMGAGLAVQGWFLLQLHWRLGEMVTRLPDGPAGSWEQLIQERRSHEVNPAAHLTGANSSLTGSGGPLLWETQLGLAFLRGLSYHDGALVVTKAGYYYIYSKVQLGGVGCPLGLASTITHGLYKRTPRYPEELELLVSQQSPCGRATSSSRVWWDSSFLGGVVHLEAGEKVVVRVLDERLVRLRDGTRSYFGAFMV

[2] = target: T2, LTβ (33 kDa) and LTα (23-25 kDa) …; test: flow cytometry, II-23.D7 cells activated with PMA alone, goat anti-human IgG-PE; target taken as the surface LTα1β2 of these cells [upper histogram]
[3] = target: soluble HSV gD-1 (glycoprotein D of HSV-1) (herpes simplex virus type 1, UniProt Q69091 26-331); test: binding inhibition experiments, flow cytometry
[4] = target: gD-1 (Δ290-299t), mutant of soluble HSV gD-1 (herpes simplex virus type 1, UniProt Q69091 26-331); test: binding inhibition experiments, flow cytometry

Row | Binder | binding result (LTαTyr108Phe) | EC50 [1] | binding result [2] | binding result [3] | binding result [4]
1 | HVEM:Fc fusion protein (extracellular region of HVEM, 1 to K184, fused to the Fc of human IgG1) (Fc fusion, UniProt Q92956 39-184, looked up, range 1-184; Made in the baculovirus vector pVL1392; Residues 1-184 include the signal peptide; also called huHVEM:Fc; hu HVEM:Fc; not shown: Fc of human IgG1) LPSCKEDEYPVGSECCPKCSPGYRVKEACGELTGTVCEPCPPGTYIAHLNGLSKCLQCQMCDPAMGLRASRNCSRTENAVCGCSPGHFCIVQDGDHCAACRAYATSSPGQRVQKGGTESQDTLCQNCPPGTFSPNGTLEECQHQTK | no binding | 20 nM | no binding | – | –
2 | TNFR60:Fc (Fc fusion, UniProt P19438 30-211, looked up, also called TNFR:Fc; TNFR1-Fc; not shown: Fc region of human IgG1) LVPHLGDREKRDSVCPQGKYIHPQNNSICCTKCHKGTYLYNDCPGPGQDTDCRECESGSFTASENHLRHCLSCSKCRKEMGQVEISSCTVDRDTVCGCRKNQYRHYWSENLFQCFNCSLCLNGTVHLSCQEKQNTVCTCHAGFFLRENECVSCSNCKKSLECTKLCLPQIENVKGTEDSGTT | – | – | – | no binding | no binding
